The values below come from patent US20190119358A1.

B1: R4126 (peptide)
peptide: Ac-[Nva]CY[Tle]KA[NMeA][Phg][Trp(7-aza)]Y[NMePhe(4-F)][Sar]C-NH2
modifications: linker 2-13 via mXylylene
SMILES: CCC[C@H](NC(C)=O)C(=O)N[C@H]1CSCc2cccc(c2)CSC[C@@H](C(N)=O)NC(=O)CN(C)C(=O)[C@H](Cc2ccc(F)cc2)N(C)C(=O)[C@H](Cc2ccc(O)cc2)NC(=O)[C@H](Cc2c[nH]c3ncccc23)NC(=O)[C@H](c2ccccc2)NC(=O)[C@H](C)N(C)C(=O)[C@H](C)NC(=O)[C@H](CCCCN)NC(=O)[C@H](C(C)(C)C)NC(=O)[C@H](Cc2ccc(O)cc2)NC1=O
B2: R4125 (peptide)
peptide: Ac-[Nva]CY[Tle]AH[NMeK][Phg][Trp(7-aza)]Y[NMePhe(4-F)][Sar]C-NH2
modifications: linker 2-13 via mXylylene
SMILES: CCC[C@H](NC(C)=O)C(=O)N[C@H]1CSCc2cccc(c2)CSC[C@@H](C(N)=O)NC(=O)CN(C)C(=O)[C@H](Cc2ccc(F)cc2)N(C)C(=O)[C@H](Cc2ccc(O)cc2)NC(=O)[C@H](Cc2c[nH]c3ncccc23)NC(=O)[C@H](c2ccccc2)NC(=O)[C@H](CCCCN)N(C)C(=O)[C@H](Cc2c[nH]cn2)NC(=O)[C@H](C)NC(=O)[C@H](C(C)(C)C)NC(=O)[C@H](Cc2ccc(O)cc2)NC1=O
B3: R4115 (peptide)
peptide: Ac-[Nva]CY[Tle]KH[NMeA][Phg]WY[NMePhe(4-F)][Sar]C-NH2
modifications: linker 2-13 via mXylylene
SMILES: CCC[C@H](NC(C)=O)C(=O)N[C@H]1CSCc2cccc(c2)CSC[C@@H](C(N)=O)NC(=O)CN(C)C(=O)[C@H](Cc2ccc(F)cc2)N(C)C(=O)[C@H](Cc2ccc(O)cc2)NC(=O)[C@H](Cc2c[nH]c3ccccc23)NC(=O)[C@H](c2ccccc2)NC(=O)[C@H](C)N(C)C(=O)[C@H](Cc2c[nH]cn2)NC(=O)[C@H](CCCCN)NC(=O)[C@H](C(C)(C)C)NC(=O)[C@H](Cc2ccc(O)cc2)NC1=O
B4: R4122 (peptide)
peptide: Ac-[Nva]CY[Tle]A[Orn](Acryloyl)[NMeA][Phg][Trp(7-aza)]Y[NMePhe(4-F)][Sar]C-NH2
modifications: linker 2-13 via mXylylene
SMILES: C=CC(=O)NCCC[C@@H]1NC(=O)[C@H](C)NC(=O)[C@H](C(C)(C)C)NC(=O)[C@H](Cc2ccc(O)cc2)NC(=O)[C@@H](NC(=O)[C@H](CCC)NC(C)=O)CSCc2cccc(c2)CSC[C@@H](C(N)=O)NC(=O)CN(C)C(=O)[C@H](Cc2ccc(F)cc2)N(C)C(=O)[C@H](Cc2ccc(O)cc2)NC(=O)[C@H](Cc2c[nH]c3ncccc23)NC(=O)[C@H](c2ccccc2)NC(=O)[C@H](C)N(C)C1=O
B5: R4114 (peptide)
peptide: [Nva]CY[Tle]KH[NMeA][Phg][Trp(7-aza)]Y[NMePhe(4-F)][Sar]C[dS]KGCVIM
modifications: linker 2-13 via mXylylene
B6: R4120 (peptide)
peptide: Ac-[Nva]CY[Tle]KH[NMeA][Phg][Trp(7-aza)]Y[NMePhe(4-F)][Sar]CGGGCAIL-NH2
modifications: linker 2-13 via mXylylene
SMILES: CCC[C@H](NC(C)=O)C(=O)N[C@H]1CSCc2cccc(c2)CSC[C@@H](C(=O)NCC(=O)NCC(=O)NCC(=O)N[C@@H](CS)C(=O)N[C@@H](C)C(=O)N[C@H](C(=O)N[C@@H](CC(C)C)C(N)=O)[C@@H](C)CC)NC(=O)CN(C)C(=O)[C@H](Cc2ccc(F)cc2)N(C)C(=O)[C@H](Cc2ccc(O)cc2)NC(=O)[C@H](Cc2c[nH]c3ncccc23)NC(=O)[C@H](c2ccccc2)NC(=O)[C@H](C)N(C)C(=O)[C@H](Cc2c[nH]cn2)NC(=O)[C@H](CCCCN)NC(=O)[C@H](C(C)(C)C)NC(=O)[C@H](Cc2ccc(O)cc2)NC1=O
B7: R4129 (peptide)
peptide: Ac-[Nva]C[NMeY][Tle]KH[NMeA][Phg][Trp(7-aza)]Y[NMePhe(4-F)][Sar]C[dS][dA]K[Cys(StBu)]VIM
modifications: linker 2-13 via mXylylene
B8: R4123 (peptide)
peptide: Ac-[Nva]CY[Tle]AK(Acryloyl)[NMeA][Phg][Trp(7-aza)]Y[NMePhe(4-F)][Sar]C-NH2
modifications: linker 2-13 via mXylylene
SMILES: C=CC(=O)NCCCC[C@@H]1NC(=O)[C@H](C)NC(=O)[C@H](C(C)(C)C)NC(=O)[C@H](Cc2ccc(O)cc2)NC(=O)[C@@H](NC(=O)[C@H](CCC)NC(C)=O)CSCc2cccc(c2)CSC[C@@H](C(N)=O)NC(=O)CN(C)C(=O)[C@H](Cc2ccc(F)cc2)N(C)C(=O)[C@H](Cc2ccc(O)cc2)NC(=O)[C@H](Cc2c[nH]c3ncccc23)NC(=O)[C@H](c2ccccc2)NC(=O)[C@H](C)N(C)C1=O
B9: R4116 (peptide)
peptide: Ac-[Nva]CY[Tle]KH[NMeA][Phg][Trp(7-aza)]Y[NMePhe(4-F)][Sar]CGCMSCKCVLS-NH2
modifications: linker 2-13 via mXylylene; cysteine pairing not given here
B10: R4124 (peptide)
peptide: cyclo([PEG2]Y[Tle]KH[NMeA][Phg][Trp(7-aza)]Y[NMePhe(4-F)][Sar])
SMILES: C[C@H]1C(=O)N[C@@H](c2ccccc2)C(=O)N[C@@H](Cc2c[nH]c3ncccc23)C(=O)N[C@@H](Cc2ccc(O)cc2)C(=O)N(C)[C@@H](Cc2ccc(F)cc2)C(=O)N(C)CC(=O)NCCOCCOCCC(=O)N[C@@H](Cc2ccc(O)cc2)C(=O)N[C@@H](C(C)(C)C)C(=O)N[C@@H](CCCCN)C(=O)N[C@@H](Cc2c[nH]cn2)C(=O)N1C
B11: R4121 (peptide)
peptide: Ac-[Nva]CY[Tle]KH[NMeA][dPhg][Trp(7-aza)]Y[NMePhe(4-F)][NMeA]C-NH2
modifications: linker 2-13 via mXylylene
SMILES: CCC[C@H](NC(C)=O)C(=O)N[C@H]1CSCc2cccc(c2)CSC[C@@H](C(N)=O)NC(=O)[C@H](C)N(C)C(=O)[C@H](Cc2ccc(F)cc2)N(C)C(=O)[C@H](Cc2ccc(O)cc2)NC(=O)[C@H](Cc2c[nH]c3ncccc23)NC(=O)[C@@H](c2ccccc2)NC(=O)[C@H](C)N(C)C(=O)[C@H](Cc2c[nH]cn2)NC(=O)[C@H](CCCCN)NC(=O)[C@H](C(C)(C)C)NC(=O)[C@H](Cc2ccc(O)cc2)NC1=O
B12: R4127 (peptide)
peptide: Ac-[Nva]CY[Tle]KH[NMeA][Phg][Trp(7-aza)]Y[NMePhe(4-F)][Sar]CGGGCVIM-NH2
modifications: linker 2-13 via mXylylene
SMILES: CCC[C@H](NC(C)=O)C(=O)N[C@H]1CSCc2cccc(c2)CSC[C@@H](C(=O)NCC(=O)NCC(=O)NCC(=O)N[C@@H](CS)C(=O)N[C@H](C(=O)N[C@H](C(=O)N[C@@H](CCSC)C(N)=O)[C@@H](C)CC)C(C)C)NC(=O)CN(C)C(=O)[C@H](Cc2ccc(F)cc2)N(C)C(=O)[C@H](Cc2ccc(O)cc2)NC(=O)[C@H](Cc2c[nH]c3ncccc23)NC(=O)[C@H](c2ccccc2)NC(=O)[C@H](C)N(C)C(=O)[C@H](Cc2c[nH]cn2)NC(=O)[C@H](CCCCN)NC(=O)[C@H](C(C)(C)C)NC(=O)[C@H](Cc2ccc(O)cc2)NC1=O
B13: R4117 (peptide)
peptide: Ac-[Nva]C[NMeY][Tle]KH[NMeA][Phg][Trp(7-aza)]Y[NMePhe(4-F)][Sar]C-NH2
modifications: linker 2-13 via mXylylene
SMILES: CCC[C@H](NC(C)=O)C(=O)N[C@H]1CSCc2cccc(c2)CSC[C@@H](C(N)=O)NC(=O)CN(C)C(=O)[C@H](Cc2ccc(F)cc2)N(C)C(=O)[C@H](Cc2ccc(O)cc2)NC(=O)[C@H](Cc2c[nH]c3ncccc23)NC(=O)[C@H](c2ccccc2)NC(=O)[C@H](C)N(C)C(=O)[C@H](Cc2c[nH]cn2)NC(=O)[C@H](CCCCN)NC(=O)[C@H](C(C)(C)C)NC(=O)[C@H](Cc2ccc(O)cc2)N(C)C1=O
B14: R4128 (peptide)
peptide: cyclo([Ava]Y[Tle]KH[NMeA][Phg][Trp(7-aza)]Y[NMePhe(4-F)][Sar][Pra])
SMILES: C#CC[C@@H]1NC(=O)CN(C)C(=O)[C@H](Cc2ccc(F)cc2)N(C)C(=O)[C@H](Cc2ccc(O)cc2)NC(=O)[C@H](Cc2c[nH]c3ncccc23)NC(=O)[C@H](c2ccccc2)NC(=O)[C@H](C)N(C)C(=O)[C@H](Cc2c[nH]cn2)NC(=O)[C@H](CCCCN)NC(=O)[C@H](C(C)(C)C)NC(=O)[C@H](Cc2ccc(O)cc2)NC(=O)CCCCNC1=O
B15: R4119 (peptide)
peptide: Ac-[Nva]CY[Tle]KH[NMeA][Phg][Trp(7-aza)]Y[NMePhe(4-F)][Sar]CGCGVGIM
modifications: linker 2-13 via mXylylene
B16: R4118 (peptide)
peptide: Ac-[Nva]CY[Tle]KH[NMeA][Phg][Trp(7-aza)]Y[NMePhe(4-F)][NMeS]C-NH2
modifications: linker 2-13 via mXylylene
SMILES: CCC[C@H](NC(C)=O)C(=O)N[C@H]1CSCc2cccc(c2)CSC[C@@H](C(N)=O)NC(=O)[C@H](CO)N(C)C(=O)[C@H](Cc2ccc(F)cc2)N(C)C(=O)[C@H](Cc2ccc(O)cc2)NC(=O)[C@H](Cc2c[nH]c3ncccc23)NC(=O)[C@H](c2ccccc2)NC(=O)[C@H](C)N(C)C(=O)[C@H](Cc2c[nH]cn2)NC(=O)[C@H](CCCCN)NC(=O)[C@H](C(C)(C)C)NC(=O)[C@H](Cc2ccc(O)cc2)NC1=O

*1 amine or outer side, *2 acyl side, *3 side chain or, on linkers, in order; H or OH if unused. Bridges are numbered along the chain shown (N, C = ends). Where no end group is shown, it is not given here. [ ]: non-standard residue; d: D form. The star is where a group is joined. Trp(7-aza) = N[C@@H](Cc1c[nH]c2ncccc12)C(=O)O; NMePhe(4-F) = CN[C@@H](Cc1ccc(F)cc1)C(=O)O; mXylylene = c1cc(C[*:1])cc(C[*:2])c1; NMeY = CN[C@@H](Cc1ccc(O)cc1)C(=O)O; dPhg = N[C@@H](C(=O)O)c1ccccc1; NMeK = CN[C@@H](CCCCN)C(=O)O; Phg = N[C@H](C(=O)O)c1ccccc1; Tle = CC(C)(C)[C@H](N)C(=O)O; NMeS = CN[C@@H](CO)C(=O)O; NMeA = CN[C@@H](C)C(=O)O; Orn = NCCC[C@H](N)C(=O)O; Pra = C#CC[C@H](N)C(=O)O; Nva = CCC[C@H](N)C(=O)O; PEG2 = NCCOCCOCCC(=O)O; Acryloyl = C=CC(=O)*; Ava = NCCCCC(=O)O; Sar = CNCC(=O)O

Usually IC50 stands for the midpoint of a concentration-inhibition curve. A low value points to greater potency.

In this test the target is GMPPNP-loaded H-Ras or GTP-loaded K-Ras. Briefly: FP competition, displacement of probe R4007 from Ras.
With B1, the IC50 is 127 nM.

B2: the IC50 came to 110 nM.

In the case of B3, the IC50 amounted to 34.1 nM.

Take B4: the IC50 was 77.1 nM.

For B5, the IC50 was 32.7 nM.

As for B6, the IC50 turned out to be 65.7 nM.

Consider B7, for which the IC50 worked out at 227 nM.

B8 displayed an IC50 of 85 nM.

B9 showed an IC50 of 35.7 nM.

B10 returned an IC50 of 88.4 nM.

In turn, B11 had an IC50 of 73 nM.

B12: the half-inhibitory concentration (IC50) is 148 nM. Against the preceding molecule, the IC50 is about 2-fold higher.

As to B13, the IC50 is 48.3 nM.

In turn, B14 came in with an IC50 of 215 nM.

B15 displayed an IC50 of 64.4 nM.

In the case of B16, the IC50 was determined as 51.5 nM.
